T1: Murine CTGF (Mus musculus, UniProt P29268)
T1 construct: purchased Abbexa
T1 sequence (P29268 26-348): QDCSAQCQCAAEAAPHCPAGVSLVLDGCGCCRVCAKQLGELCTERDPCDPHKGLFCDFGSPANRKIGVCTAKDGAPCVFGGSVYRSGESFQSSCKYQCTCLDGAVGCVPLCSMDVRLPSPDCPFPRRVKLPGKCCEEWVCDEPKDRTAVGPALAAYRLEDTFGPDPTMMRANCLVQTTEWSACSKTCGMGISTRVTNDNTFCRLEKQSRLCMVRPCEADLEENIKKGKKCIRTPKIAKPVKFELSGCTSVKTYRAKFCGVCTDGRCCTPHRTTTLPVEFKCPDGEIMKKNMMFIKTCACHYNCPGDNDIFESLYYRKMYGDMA

T2: human CTGF (Homo sapiens, UniProt P29279, H83D)
T2 construct: purchased R&D Systems
T2 sequence (P29279 27-349 H83D): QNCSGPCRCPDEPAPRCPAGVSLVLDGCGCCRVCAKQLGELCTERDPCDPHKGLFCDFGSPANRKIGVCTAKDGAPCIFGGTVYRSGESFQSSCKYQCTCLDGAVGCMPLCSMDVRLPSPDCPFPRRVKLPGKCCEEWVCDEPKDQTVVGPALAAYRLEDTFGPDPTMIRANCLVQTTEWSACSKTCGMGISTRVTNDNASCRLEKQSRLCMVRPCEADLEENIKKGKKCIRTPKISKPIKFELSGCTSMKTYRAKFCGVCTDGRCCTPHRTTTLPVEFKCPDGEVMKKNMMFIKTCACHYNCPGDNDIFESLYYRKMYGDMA

T3: Rat CTGF (Rattus norvegicus, UniProt Q9R1E9)
T3 construct: purchased R&D Systems
T3 sequence (Q9R1E9 25-347): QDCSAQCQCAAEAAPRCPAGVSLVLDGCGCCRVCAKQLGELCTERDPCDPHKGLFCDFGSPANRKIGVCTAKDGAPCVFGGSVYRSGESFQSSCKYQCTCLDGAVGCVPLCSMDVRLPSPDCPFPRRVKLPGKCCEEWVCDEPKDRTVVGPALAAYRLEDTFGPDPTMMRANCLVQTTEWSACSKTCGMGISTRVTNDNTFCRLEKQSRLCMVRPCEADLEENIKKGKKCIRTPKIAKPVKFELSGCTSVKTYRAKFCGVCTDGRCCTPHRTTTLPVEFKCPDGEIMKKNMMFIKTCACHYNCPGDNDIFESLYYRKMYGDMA


How the values were obtained:
Murine CTGF [1] = biological target: T1, Murine CTGF; assay: SPR binding kinetics and affinity, murine CTGF; set-up: key to Murine CTGF kon / Murine CTGF koff / Murine CTGF KD: B binding without determination of kinetics constants; conditions: 25° C., 1:1 binding model
Summary of the method: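 Targets either amine-coupled to CM5 chip (300–1100 RU; Fc-tagged human, untagged rat/murine) or Fc-captured via anti-human IgG; muteins injected 180 s contact, 900–3600 s dissociation, 30 μL/min, 25° C. Double-referenced sensorgrams fit to 1:1 model giving kon, koff and KD.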

human CTGF [2] = biological target: T4, human CTGF (Homo sapiens, UniProt P29279, H83D); assay: SPR binding kinetics and affinity, human CTGF; conditions: 25° C., 1:1 binding model
T4 construct: purchased Creative Biomart
Summary of the method: (§1)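 Biacore SPR at 25 °C; CTGF either Fc-captured via anti-human IgG (HBS-EP+) or amine-coupled to CM5 (300–1100 RU). Muteins injected 180 s contact, 900–3600 s dissociation, 30 μL/min.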
T4 sequence (P29279 with tags, fused parts or gaps H83D): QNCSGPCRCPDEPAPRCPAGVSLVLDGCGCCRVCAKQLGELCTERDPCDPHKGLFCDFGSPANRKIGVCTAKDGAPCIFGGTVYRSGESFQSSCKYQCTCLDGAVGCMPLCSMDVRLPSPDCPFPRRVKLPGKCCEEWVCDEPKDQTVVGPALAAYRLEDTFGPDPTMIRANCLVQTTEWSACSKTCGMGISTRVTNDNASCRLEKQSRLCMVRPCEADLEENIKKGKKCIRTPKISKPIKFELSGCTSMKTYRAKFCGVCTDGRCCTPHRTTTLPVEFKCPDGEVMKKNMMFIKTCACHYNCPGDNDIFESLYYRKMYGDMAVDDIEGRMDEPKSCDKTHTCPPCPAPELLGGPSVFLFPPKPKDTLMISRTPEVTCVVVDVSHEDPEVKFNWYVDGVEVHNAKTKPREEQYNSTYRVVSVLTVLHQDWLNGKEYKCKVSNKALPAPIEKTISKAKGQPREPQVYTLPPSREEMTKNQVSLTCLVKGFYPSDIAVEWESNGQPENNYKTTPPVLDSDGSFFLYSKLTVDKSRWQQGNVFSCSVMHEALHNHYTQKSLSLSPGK

human CTGF [3] = biological target: T5, human CTGF (Homo sapiens, UniProt P29279); assay: SPR binding kinetics and affinity, human CTGF; conditions: 25° C., 1:1 binding model
T5 construct: purchased Creative Biomart
T5 sequence (P29279 with tags, fused parts or gaps H83D): as above
Summary of the method: as §1

human CTGF [4] = biological target: T2, human CTGF; assay: ELISA binding to full-length human CTGF (Example 9); conditions: coated 1 μg/ml, muteins from 1000 nM, read-out: EC Human CTGF
Method: (§2) Binding of muteins to fragments of human and murine CTGF was tested by an ELISA assay. In detail, a 384-well plate suitable for fluorescence measurements (Greiner FLUOTRAC™ 600, black flat bottom, high-binding) was coated with 20 μl of human (R&D Systems, SEQ ID NO 79) and murine CTGF (Biozol, SEQ ID NO: 80) or fragments thereof (Evitria, huCTGF domains 1 and 2 with human Fc tag (SEQ ID NO 77) and muCTGF domains 1 and 2 with human Fc tag (SEQ ID NO 78)) at a concentration of 1 μg/ml in PBS over night at 4° C. After washing with PBS with 0.05% Tween 20, wells were blocked with 100 μl blocking buffer containing 0.1% Tween 20 and 2% BSA (PBS-T/BSA) for 1 h at room temperature. 20 μl of serially diluted muteins starting at 1000 nM were incubated in PBS-T/BSA for 1 h at room temperature.
(§3) The residual supernatants were discarded and 20 μl HRP-labeled anti-Strep-Tag antibody was added at a predetermined optimal concentration in PBS-T/BSA and incubated for 1 h at RT. After washing, 20 μl fluorogenic HRP substrate (QuantaBlu, Thermo) was added to each well, and the reaction was allowed to proceed for 5 to 25 minutes. The fluorescence intensity of every well on the plate was read using a fluorescence microplate reader (Tecan). Curve fitting was performed using GraphPad Prism 7 software.

Rat CTGF = biological target: T3, Rat CTGF; assay: ELISA binding to rat CTGF (Example 9); conditions: muteins from 1000 nM; for EC50: read-out: EC Rat CTGF
Murine CTGF [5] = biological target: T6, Murine CTGF (Mus musculus, UniProt P29268); assay: ELISA binding to full-length murine CTGF (Example 9); conditions: coated 1 μg/ml, muteins from 1000 nM; for EC50: read-out: EC Murine CTGF
T6 construct: Fc (N); purchased Biozol
Method: as §2, §3
T6 sequence (P29268 with tags, fused parts or gaps): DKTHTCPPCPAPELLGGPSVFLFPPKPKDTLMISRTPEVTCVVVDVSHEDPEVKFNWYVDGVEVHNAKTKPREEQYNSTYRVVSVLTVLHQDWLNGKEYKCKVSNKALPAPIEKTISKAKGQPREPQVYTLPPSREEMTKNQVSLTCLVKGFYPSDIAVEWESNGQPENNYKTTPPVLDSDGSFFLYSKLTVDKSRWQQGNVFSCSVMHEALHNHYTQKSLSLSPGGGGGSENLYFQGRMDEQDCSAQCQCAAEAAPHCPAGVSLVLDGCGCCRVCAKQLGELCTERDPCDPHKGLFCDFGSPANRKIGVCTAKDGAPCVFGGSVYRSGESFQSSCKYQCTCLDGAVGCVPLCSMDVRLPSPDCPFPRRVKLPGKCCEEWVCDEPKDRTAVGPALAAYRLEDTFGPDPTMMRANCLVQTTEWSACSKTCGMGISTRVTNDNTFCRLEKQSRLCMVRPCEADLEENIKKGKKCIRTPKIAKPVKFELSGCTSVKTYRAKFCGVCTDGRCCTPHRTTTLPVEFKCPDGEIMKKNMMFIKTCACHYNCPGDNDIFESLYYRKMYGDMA

Molecule | Murine CTGF KD (Murine CTGF [1]) | Murine CTGF koff (Murine CTGF [1]) | Murine CTGF kon (Murine CTGF [1]) | human CTGF kon (human CTGF [2]) [M⁻¹ s⁻¹] | human CTGF koff (human CTGF [3]) [s⁻¹] | EC50 (human CTGF [4]) [nM] | EC50 (Rat CTGF) [nM] | Kd (Murine CTGF [1]) [nM] | EC50 (Murine CTGF [5]) [nM] | Kd (human CTGF [2]) [nM] | EC Murine CTGF (Murine CTGF [5]) | EC Rat CTGF (Rat CTGF)
SEQ ID NO: 23: optimized CTGF-binding hNGAL lipocalin mutein (protein, lipocalin mutein) QDSTSDLIPAPPLSKVPLQQNFQDNQFQGKWYVVGVAGNAILRPDKQPAKMFATIYELKEDKSYDVTSVRFEAKSCKYTIKTFVPGSQPGEFTSGQIKSAPGQTSTLVRVVSTNYNQHAMVFFKHVSQNREIFVITLYGRTKELTSELKENFIRFSKSLGLPENHIVFPVPIDQCIDG | B | B | B | 122000 | 9.42e-06 | – | – | – | – | – | – | –
SEQ ID NO: 15: optimized CTGF-binding hNGAL lipocalin mutein (protein, lipocalin mutein) QDSTSDLIPAPPLSKVPLQQNFQDNQFQGKWYVVGLAGNAILREDKQPAKMFATIYELKEDKSYDVTSVRFEAKSCKYTIKTFVPGSQPGEFTAGYIKSAPGQTSTLVRVVSTNYNQHAMVFFKHVTQNREIFVITLYGRTKELTSELKENFIRFSKSLGLPENHIVFPVPIDQCIDG | – | 4.51e-05 s⁻¹ | 129000 M⁻¹ s⁻¹ | 81700 | 4.47e-05 | – | – | – | – | – | – | –
SEQ ID NO: 9: parent CTGF-binding hNGAL lipocalin mutein (protein, lipocalin mutein) QDSTSDLIPAPPLSKVPLQQNFQDNQFHGKWYVVGLAGNKILRIDKQPAKMFATIYELKEDKSYDVTSVRFEARSCSYTIKTFVPGSQPGEFTAGNIKSAPGQTSTLVRVVSTNYNQHAMVFFKHVSQNRETFVITLYGRTKELTSELKENFIRFSKSLGLPENHIVFPVPIDQCIDG | – | 0.000832 s⁻¹ | 133000 M⁻¹ s⁻¹ | 79800 | 0.00102 | 14 | 30 | 6.26 | 11 | 12.8 | – | –
SEQ ID NO: 7: parent CTGF-binding hNGAL lipocalin mutein (protein, lipocalin mutein) QDSTSDLIPAPPLSKVPLQQNFQDNQFHGKWYVVGLAGNYGLRTDKRPSKMFATIYELKEDKSYDVTSVRFEQERCHYTIRTFVPGSQPGEFTTGSIKSRPGQTSSLVRVVSTNYNQHAMVFFKSVIQNREYFAITLYGRTKELTSELKENFIRFSKSLGLPENHIVFPVPIDQCIDG | B | B | B | 97600 | 0.00587 | 34 | 41 | – | 29 | 60.2 | – | –
SEQ ID NO: 25: parent CTGF-binding hNGAL lipocalin mutein (protein, lipocalin mutein) QDSTSDLIPAPPLSKVPLQQNFQDNQFHGKWYVVGMAGNFRLREDKDPSKMGATIYELKEDKSYNVTQVQFDDKKCLYVIETFVPGSQPGEFTLGAIKSFPGFTSQLVRVVSTNYNQHAMVFFKKVYQNREVFWITLYGRTKELTSELKENFIRFSKSLGLPENHIVFPVPIDQCIDG | – | – | – | 26800 | 0.000248 | 11 | 23 | – | – | 9.27 | n.b. | –
SEQ ID NO: 29: parent CTGF-binding hNGAL lipocalin mutein (protein, lipocalin mutein) QDSTSDLIPAPPLSKVPLQQNFQDNQFHGKWYVVGWAGNIKLREDKDPFKMSATIYELKEDKSYNVTEVVFEQKKCHYIIKTFVPGSQPGEFTLGDIKSPPGETSSLVRVVSTNYNQHAMVFFKKVFQNREFFWITLYGRTKELTSELKENFIRFSKSLGLPENHIVFPVPIDQCIDG | – | – | – | 100000 | 0.00112 | 11 | 20 | – | – | 11.2 | n.b. | –
SEQ ID NO: 3: parent CTGF-binding hNGAL lipocalin mutein (protein, lipocalin mutein) QDSTSDLIPAPPLSKVPLQQNFQDNQFHGKWYVVGRAGNNRLREDKDPPKMWATIYELKEDKSYNVTHVHFMTKKCRYIIDTFVPGSQPGEFTLGAIKSGPGMTSPLVRIVSTNYNQHAMVFFKWVNQNREWFTITLYGRTKELTSELKENFIRFSKSLGLPENHIVFPVPIDQCIDG | B | B | B | 200000 | 0.00749 | 6.9 | – | – | – | 37.5 | n.b. | weak

Source: US20240228562A1, “NOVEL LIPOCALIN MUTEINS SPECIFIC FOR CONNECTIVE TISSUE GROWTH FACTOR (CTGF)” (PIERIS PHARMACEUTICALS GMBH, priority 2021, published 2024)
